Experimental data published in patent publication US20220177594A1.

Legend:
[1] = target: Canine_OSMR_hlgG1_Fc (canine); test: SPR Biacore
[2] = target: Feline_OSMR_hlgG1_Fc (feline); test: SPR Biacore
[3] = target: Canine_OSMR_hlgG1_Fc (canine); test: SPR Biacore, OSMR on chip
[4] = target: Feline_OSMR_hlgG1_Fc (feline); test: SPR Biacore, OSMR on chip
[5] = target: Feline_OSMR_hlgG1_Fc (feline); test: indirect ELISA, fOSMR coated; OD ratio to antibody expression control

Sequence of Feline_OSMR_hlgG1_Fc (feline) (chain, as listed by the source limits assumed, form in doubt): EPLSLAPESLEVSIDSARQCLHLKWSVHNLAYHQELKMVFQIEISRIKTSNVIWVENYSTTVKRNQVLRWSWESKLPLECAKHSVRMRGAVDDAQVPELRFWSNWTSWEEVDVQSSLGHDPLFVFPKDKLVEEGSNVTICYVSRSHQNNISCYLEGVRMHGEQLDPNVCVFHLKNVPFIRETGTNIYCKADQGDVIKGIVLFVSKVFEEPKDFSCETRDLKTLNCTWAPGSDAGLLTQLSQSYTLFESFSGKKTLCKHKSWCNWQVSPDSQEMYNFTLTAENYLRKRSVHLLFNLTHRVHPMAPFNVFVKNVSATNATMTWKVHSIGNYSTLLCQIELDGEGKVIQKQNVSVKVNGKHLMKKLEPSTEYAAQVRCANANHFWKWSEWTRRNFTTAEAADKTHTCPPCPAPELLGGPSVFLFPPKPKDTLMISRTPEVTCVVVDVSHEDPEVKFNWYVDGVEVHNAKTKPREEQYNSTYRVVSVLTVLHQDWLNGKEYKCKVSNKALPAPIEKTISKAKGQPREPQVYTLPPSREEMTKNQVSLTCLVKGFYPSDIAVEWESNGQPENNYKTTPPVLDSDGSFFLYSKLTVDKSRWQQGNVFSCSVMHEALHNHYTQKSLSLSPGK
Sequence of Canine_OSMR_hlgG1_Fc (canine) (chain, as listed by the source limits assumed, form in doubt): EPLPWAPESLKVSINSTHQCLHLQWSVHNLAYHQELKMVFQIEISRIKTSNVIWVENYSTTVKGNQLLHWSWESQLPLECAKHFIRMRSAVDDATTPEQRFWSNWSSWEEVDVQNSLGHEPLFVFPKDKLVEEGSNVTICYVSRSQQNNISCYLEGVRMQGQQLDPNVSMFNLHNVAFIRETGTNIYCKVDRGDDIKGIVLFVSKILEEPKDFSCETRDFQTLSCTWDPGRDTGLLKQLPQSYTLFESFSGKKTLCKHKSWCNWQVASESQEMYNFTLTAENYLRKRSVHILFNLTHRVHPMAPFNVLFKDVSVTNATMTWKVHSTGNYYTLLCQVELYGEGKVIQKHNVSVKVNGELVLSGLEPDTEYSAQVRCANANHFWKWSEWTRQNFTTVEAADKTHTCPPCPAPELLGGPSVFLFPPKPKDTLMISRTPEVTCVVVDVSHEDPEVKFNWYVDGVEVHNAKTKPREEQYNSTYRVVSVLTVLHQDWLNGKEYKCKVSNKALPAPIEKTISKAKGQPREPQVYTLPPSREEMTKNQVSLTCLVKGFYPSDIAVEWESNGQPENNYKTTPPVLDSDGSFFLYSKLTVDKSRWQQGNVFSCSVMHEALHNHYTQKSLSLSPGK

Kd [1] [nM]	koff [1] [s⁻¹]	kon [1] [M⁻¹ s⁻¹]	Kd [2] [nM]	koff [2] [s⁻¹]	kon [2] [M⁻¹ s⁻¹]	Kd [3] [nM]	koff [3] [s⁻¹]	kon [3] [M⁻¹ s⁻¹]	Kd [4] [nM]	koff [4] [s⁻¹]	kon [4] [M⁻¹ s⁻¹]	ELISA ratio [5] [OD ratio]	Binder
3.83	0.0021	572000	1.24	0.000945	759000	5.29	0.00104	196000	2.37	0.000697	294000	1.61	mouse: canine 09E09 chimera (antibody, V domains shown) VH: DVKLVESGEGLVKPGGSLKLSCAASGFTFSSYAMSWVRQTPEKRLEWVAYISSGGDYIYYADTVKGRFTISRDNARNTLYLQMSSLKSEDTAMYYCTRDPITGTFAYWGQGTLVTVSA VL: DLQMTQTTSSLSASLGDRVTISCRASQDINNYLNWYQQKPDGTVKLLIYYTSTLHSGVPSRFSGSGSGTDYSLTISNLEQEDIATYFCQQGNTLPWTFGGGTKLEIKR
6.13	0.000302	49400	1.57	0.000346	220000	1.38	0.000222	161000	0.022	4.4e-07	20000	1.76	mouse: canine 10F07 chimera (antibody, V domains shown) VH: DVKLVESGEGLVKPGGSLKLSCAASGFTFSSYAMSWVRQTPEKRLEWVTYISSGGDYFYYADTVKGRFTISRDNARNTLYLQMSSLKSEDTAMYYCTRDPITGTFAYWGQGTLVTVSA VL: DIQMTQTTSSLSASLGDRVTISCRASQDITNYLNWYQQKPDGTVKLLIYYTSTLHSGVPSRFSGSGSGTDFSLTISNLEQEDIATYFCQQGHMLPWTFGGGTKLEIKR
5.32	0.000219	41200	1.63	0.000282	172000	–	–	–	–	–	–	0.298	Mu_10F07_VL (SEQ ID NO: 41)_T97A (antibody, V domains shown) VH: DVKLVESGEGLVKPGGSLKLSCAASGFTFSSYAMSWVRQTPEKRLEWVTYISSGGDYFYYADTVKGRFTISRDNARNTLYLQMSSLKSEDTAMYYCTRDPITGTFAYWGQGTLVTVSA VL: DIQMTQTTSSLSASLGDRVTISCRASQDITNYLNWYQQKPDGTVKLLIYYTSTLHSGVPSRFSGSGSGTDFSLTISNLEQEDIATYFCQQGHMLPWAFGGGTKLEIKR
–	–	–	–	–	–	7.87	–	–	3.75	–	–	–	Mu_09E09 (antibody, V domains shown) VH: DVKLVESGEGLVKPGGSLKLSCAASGFTFSSYAMSWVRQTPEKRLEWVAYISSGGDYIYYADTVKGRFTISRDNARNTLYLQMSSLKSEDTAMYYCTRDPITGTFAYWGQGTLVTVSA VL: DLQMTQTTSSLSASLGDRVTISCRASQDINNYLNWYQQKPDGTVKLLIYYTSTLHSGVPSRFSGSGSGTDYSLTISNLEQEDIATYFCQQGNTLPWTFGGGTKLEIK
–	–	–	–	–	–	2.03	–	–	1.59	–	–	–	Mu_10F07 (antibody, V domains shown) VH: DVKLVESGEGLVKPGGSLKLSCAASGFTFSSYAMSWVRQTPEKRLEWVTYISSGGDYFYYADTVKGRFTISRDNARNTLYLQMSSLKSEDTAMYYCTRDPITGTFAYWGQGTLVTVSA VL: DIQMTQTTSSLSASLGDRVTISCRASQDITNYLNWYQQKPDGTVKLLIYYTSTLHSGVPSRFSGSGSGTDFSLTISNLEQEDIATYFCQQGHMLPWTFGGGTKLEIK
–	–	–	–	–	–	–	–	–	8.96	–	–	–	Mu_02D09 (antibody, V domains shown) VH: EVQLVESGGGLVKPGGSLTLSCAASGFTFSDYGMHWLRQAPEKGLEWVAYISSGSRAVFFADTVKGRFTISRDNAKNTLFLQMTSLRSDDTAMYYCARDRYDGRGFAYWGQGTLVTVSA VL: DIVLTQSPATLSVTPGDSVSLSCRASQSISNNLHWYQQTSHESPRLLITYASQSISGIPSRFSGSGSGTDFTLSINSVETEDFGMYFCQQSNSWPLTFGAGTKLELK
–	–	–	9.08	0.00119	131000	12.8	0.00328	256000	6.65	0.000942	142000	1.61	mouse: canine 02D09 chimera (antibody, V domains shown) VH: EVQLVESGGGLVKPGGSLTLSCAASGFTFSDYGMHWLRQAPEKGLEWVAYISSGSRAVFFADTVKGRFTISRDNAKNTLFLQMTSLRSDDTAMYYCARDRYDGRGFAYWGQGTLVTVSA VL: DIVLTQSPATLSVTPGDSVSLSCRASQSISNNLHWYQQTSHESPRLLITYASQSISGIPSRFSGSGSGTDFTLSINSVETEDFGMYFCQQSNSWPLTFGAGTKLELKR
7.49	0.000775	88400	0.312	8.06e-05	242000	442	0.00084	1900	44.5	0.002	45100	1.72	mouse: canine 19F07 chimera (antibody, V domains shown) VH: EVKLVESEGGLVQPGSSMKLSCTASGFTFSDYYMAWVRQVPEKGLEWVANINYDGSSTYYLDSLKSRFIISRDNAKNILYLQMSSLKSEDTATYYCARGLTWDFDVWGTGTTVTVSS VL: DIVMTQSHKFMSPSVGDRVSITCKASQDVDTAVAWYQQKPGQSPKLLIYLASTRHTGVPDRFTGSGSGTDFTLTISNVQSEDLADYFCQQYSRFPLTFGAGTKLELKR
–	–	–	–	–	–	0.951	–	–	0.0207	–	–	–	Mu_19F07 (antibody, V domains shown) VH: EVKLVESEGGLVQPGSSMKLSCTASGFTFSDYYMAWVRQVPEKGLEWVANINYDGSSTYYLDSLKSRFIISRDNAKNILYLQMSSLKSEDTATYYCARGLTWDFDVWGTGTTVTVSS VL: DIVMTQSHKFMSPSVGDRVSITCKASQDVDTAVAWYQQKPGQSPKLLIYLASTRHTGVPDRFTGSGSGTDFTLTISNVQSEDLADYFCQQYSRFPLTFGAGTKLELK
–	–	–	–	–	–	14.2	–	–	–	–	–	–	Mu_14C04 (antibody, V domains shown) VH: EVQLQESGAELVKPGASVKISCKASGYAFSNYWMNWMKQRPGKGLEWIGQIYPGHVNTNYNGNFKDKATLTADKSSSTAYMQLSSLTSEDSAVYFCARSADNSGFVLFAYWGQGTLVTVS VL: DIVLTQSPASLAVSLGQRATISCRASKSVSTSGYSYLHWYQQKPGQPPKLLIFLASNLESGVPARFSGSGSGTDFTLNIHPVEEEDAATYYCQHSRELPLTFGAGTKLELK
